Data reported in the supplement of paper PMC9876800.

The substances below were run on peptide library, one residue held at a place counted from the S/T acceptor (assay: relative phosphorylation of the sub-library (ratio to the mean residue at this position); human; higher = residue favoured). Details: Y fixed; at -2.
Summary of the method: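 Relative sub-library phosphorylation is the ratio of each sub-library's signal to the mean residue at that position. The signal came from phosphorimaging of spots on streptavidin membranes, quantified by densitometry, after purified recombinant kinases reacted with biotinylated degenerate peptide sub-libraries in 384-well plates. Reactions held 50 μM peptide and 50 μM ATP spiked with γ-32P-ATP for 90 min under kinase-specific conditions.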

MOK, construct: aa1-343, sequence (Q9UQ07 1-343, looked up): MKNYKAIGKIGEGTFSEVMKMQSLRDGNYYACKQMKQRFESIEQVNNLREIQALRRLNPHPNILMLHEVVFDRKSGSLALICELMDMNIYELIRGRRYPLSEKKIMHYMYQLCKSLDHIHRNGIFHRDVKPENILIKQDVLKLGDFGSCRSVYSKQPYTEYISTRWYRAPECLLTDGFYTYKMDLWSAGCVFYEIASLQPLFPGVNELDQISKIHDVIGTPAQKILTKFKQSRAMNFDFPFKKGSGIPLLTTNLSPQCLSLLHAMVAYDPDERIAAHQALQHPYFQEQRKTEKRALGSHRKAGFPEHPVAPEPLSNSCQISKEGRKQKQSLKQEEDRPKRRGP
CHEK2, construct: Full length, sequence (O96017 whole entry, looked up): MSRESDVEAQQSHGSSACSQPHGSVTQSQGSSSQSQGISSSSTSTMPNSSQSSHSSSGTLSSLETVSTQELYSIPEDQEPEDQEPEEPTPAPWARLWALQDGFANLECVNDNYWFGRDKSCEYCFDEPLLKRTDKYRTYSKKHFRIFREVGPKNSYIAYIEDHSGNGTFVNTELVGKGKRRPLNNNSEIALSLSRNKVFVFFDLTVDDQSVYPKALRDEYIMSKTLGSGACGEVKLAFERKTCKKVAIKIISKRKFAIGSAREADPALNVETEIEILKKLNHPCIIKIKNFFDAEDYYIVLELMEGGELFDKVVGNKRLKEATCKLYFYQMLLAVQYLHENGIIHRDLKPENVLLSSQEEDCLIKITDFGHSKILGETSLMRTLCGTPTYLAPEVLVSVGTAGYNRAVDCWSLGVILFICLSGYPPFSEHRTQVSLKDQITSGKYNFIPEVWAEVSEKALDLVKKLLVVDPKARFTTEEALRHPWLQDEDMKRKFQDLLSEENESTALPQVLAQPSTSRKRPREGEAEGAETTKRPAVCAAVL
EIF2AK1, construct: Full length, sequence (Q9BQI3 whole entry, looked up): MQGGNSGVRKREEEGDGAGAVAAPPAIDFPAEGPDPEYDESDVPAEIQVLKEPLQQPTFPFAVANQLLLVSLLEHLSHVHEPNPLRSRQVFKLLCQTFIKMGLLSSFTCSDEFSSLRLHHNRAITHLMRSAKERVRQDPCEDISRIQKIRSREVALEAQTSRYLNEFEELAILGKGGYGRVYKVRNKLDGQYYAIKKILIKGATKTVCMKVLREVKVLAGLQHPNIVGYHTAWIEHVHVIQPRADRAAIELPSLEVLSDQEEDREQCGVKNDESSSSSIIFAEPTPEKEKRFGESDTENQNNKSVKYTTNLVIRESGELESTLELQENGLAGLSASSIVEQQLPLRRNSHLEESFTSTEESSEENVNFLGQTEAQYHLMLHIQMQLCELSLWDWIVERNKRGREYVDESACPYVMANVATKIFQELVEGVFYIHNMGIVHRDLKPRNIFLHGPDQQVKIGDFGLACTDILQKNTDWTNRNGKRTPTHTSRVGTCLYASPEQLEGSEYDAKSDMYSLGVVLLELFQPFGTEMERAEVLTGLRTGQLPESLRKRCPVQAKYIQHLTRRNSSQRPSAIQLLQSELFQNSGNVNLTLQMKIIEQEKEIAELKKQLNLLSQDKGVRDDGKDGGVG
CAMK1, construct: Full length, sequence (Q14012 whole entry, looked up): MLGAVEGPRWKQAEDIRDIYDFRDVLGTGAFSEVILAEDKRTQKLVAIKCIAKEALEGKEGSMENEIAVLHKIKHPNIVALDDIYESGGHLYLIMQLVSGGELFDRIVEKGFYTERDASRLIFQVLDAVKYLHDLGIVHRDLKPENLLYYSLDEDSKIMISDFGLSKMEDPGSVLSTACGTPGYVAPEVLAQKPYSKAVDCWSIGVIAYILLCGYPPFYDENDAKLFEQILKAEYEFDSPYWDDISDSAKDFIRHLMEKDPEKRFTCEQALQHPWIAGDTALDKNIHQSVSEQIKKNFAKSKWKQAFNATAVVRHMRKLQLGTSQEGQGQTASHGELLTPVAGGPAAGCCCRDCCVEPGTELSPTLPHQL
MAP3K10, construct: aa1-449, sequence (Q02779 1-449, looked up): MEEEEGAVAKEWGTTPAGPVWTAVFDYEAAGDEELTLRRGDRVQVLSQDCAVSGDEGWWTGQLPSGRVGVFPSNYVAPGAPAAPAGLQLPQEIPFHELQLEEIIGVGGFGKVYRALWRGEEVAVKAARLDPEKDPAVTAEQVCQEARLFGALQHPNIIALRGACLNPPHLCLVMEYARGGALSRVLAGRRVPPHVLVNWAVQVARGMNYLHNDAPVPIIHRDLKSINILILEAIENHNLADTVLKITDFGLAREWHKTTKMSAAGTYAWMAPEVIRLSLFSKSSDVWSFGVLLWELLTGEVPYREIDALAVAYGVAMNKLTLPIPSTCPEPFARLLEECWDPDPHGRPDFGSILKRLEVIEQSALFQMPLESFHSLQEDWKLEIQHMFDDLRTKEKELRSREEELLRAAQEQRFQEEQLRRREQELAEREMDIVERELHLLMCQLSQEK
TTBK1, construct: Full length, sequence (Q5TCY1 whole entry, looked up): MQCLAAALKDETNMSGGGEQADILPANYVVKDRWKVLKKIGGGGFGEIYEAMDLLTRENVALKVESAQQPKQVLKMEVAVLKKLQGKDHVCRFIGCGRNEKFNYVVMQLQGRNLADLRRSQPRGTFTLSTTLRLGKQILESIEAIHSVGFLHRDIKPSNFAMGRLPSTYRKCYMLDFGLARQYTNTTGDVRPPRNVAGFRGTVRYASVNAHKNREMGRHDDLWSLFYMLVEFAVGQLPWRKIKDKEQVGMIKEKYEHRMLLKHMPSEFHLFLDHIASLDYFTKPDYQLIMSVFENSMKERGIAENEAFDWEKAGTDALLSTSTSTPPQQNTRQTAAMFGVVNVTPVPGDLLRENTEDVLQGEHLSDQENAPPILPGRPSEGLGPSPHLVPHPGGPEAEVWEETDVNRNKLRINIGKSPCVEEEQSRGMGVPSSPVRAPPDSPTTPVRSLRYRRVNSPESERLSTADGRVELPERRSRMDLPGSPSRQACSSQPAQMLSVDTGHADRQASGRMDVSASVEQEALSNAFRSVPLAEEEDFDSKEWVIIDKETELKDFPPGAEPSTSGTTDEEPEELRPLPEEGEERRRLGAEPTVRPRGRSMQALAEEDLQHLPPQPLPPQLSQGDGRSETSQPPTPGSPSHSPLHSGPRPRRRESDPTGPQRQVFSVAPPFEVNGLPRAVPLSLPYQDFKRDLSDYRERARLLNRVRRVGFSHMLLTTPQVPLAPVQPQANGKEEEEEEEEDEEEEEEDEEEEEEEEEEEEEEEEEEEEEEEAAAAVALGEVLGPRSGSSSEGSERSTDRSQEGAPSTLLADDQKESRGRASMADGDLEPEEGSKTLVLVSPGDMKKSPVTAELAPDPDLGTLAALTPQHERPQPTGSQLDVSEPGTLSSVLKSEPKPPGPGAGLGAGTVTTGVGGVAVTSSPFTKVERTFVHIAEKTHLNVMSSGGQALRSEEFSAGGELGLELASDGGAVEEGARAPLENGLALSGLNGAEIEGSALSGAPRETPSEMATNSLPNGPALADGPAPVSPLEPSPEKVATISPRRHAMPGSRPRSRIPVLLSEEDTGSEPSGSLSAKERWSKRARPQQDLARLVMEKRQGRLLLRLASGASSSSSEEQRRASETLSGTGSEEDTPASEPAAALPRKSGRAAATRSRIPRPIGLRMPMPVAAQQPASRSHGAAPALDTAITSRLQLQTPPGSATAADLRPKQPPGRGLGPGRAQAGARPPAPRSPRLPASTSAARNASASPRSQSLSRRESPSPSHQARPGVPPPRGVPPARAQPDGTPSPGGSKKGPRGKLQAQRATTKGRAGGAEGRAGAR
MAP4K3, construct: aa1-380, sequence (Q8IVH8 1-380, looked up): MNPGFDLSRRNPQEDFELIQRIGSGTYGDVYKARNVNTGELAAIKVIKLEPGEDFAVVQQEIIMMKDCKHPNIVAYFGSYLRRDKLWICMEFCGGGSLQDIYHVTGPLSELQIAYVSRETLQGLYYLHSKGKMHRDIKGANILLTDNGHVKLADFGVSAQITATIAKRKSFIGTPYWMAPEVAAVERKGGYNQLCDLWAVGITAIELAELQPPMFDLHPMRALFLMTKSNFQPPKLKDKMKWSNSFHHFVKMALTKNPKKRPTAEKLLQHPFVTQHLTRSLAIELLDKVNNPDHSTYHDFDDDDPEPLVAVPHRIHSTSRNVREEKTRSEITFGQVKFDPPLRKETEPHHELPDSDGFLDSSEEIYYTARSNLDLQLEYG

Substance	relative phosphorylation
MAP3K10, construct: aa1-449 (from UniProt Q02779)	1.47
EIF2AK1, construct: Full length (from UniProt Q9BQI3)	0.764
PKN3, construct: Full length (from UniProt Q6P5Z2)	0.646

Same assay, conditions: Y fixed; at -3

Substance	relative phosphorylation
MOK, construct: aa1-343 (from UniProt Q9UQ07)	0.377
TTBK1, construct: Full length (from UniProt Q5TCY1)	1.08
CHEK2, construct: Full length (from UniProt O96017)	0.265
MAP4K3, construct: aa1-380 (from UniProt Q8IVH8)	0.978
CAMK1, construct: Full length (from UniProt Q14012)	0.227
MAP3K10, construct: aa1-449 (from UniProt Q02779)	1.02
EIF2AK1, construct: Full length (from UniProt Q9BQI3)	1.38
PKN3, construct: Full length (from UniProt Q6P5Z2)	0.561

Same assay, conditions: Y fixed; at -4

Substance	relative phosphorylation
MOK, construct: aa1-343 (from UniProt Q9UQ07)	0.745
TTBK1, construct: Full length (from UniProt Q5TCY1)	1.23
CHEK2, construct: Full length (from UniProt O96017)	1.05
MAP4K3, construct: aa1-380 (from UniProt Q8IVH8)	0.968
CAMK1, construct: Full length (from UniProt Q14012)	0.827
MAP3K10, construct: aa1-449 (from UniProt Q02779)	0.843
EIF2AK1, construct: Full length (from UniProt Q9BQI3)	1.28
PKN3, construct: Full length (from UniProt Q6P5Z2)	0.786

Same assay, conditions: Y fixed; at -5

Substance	relative phosphorylation
MOK, construct: aa1-343 (from UniProt Q9UQ07)	1.31
TTBK1, construct: Full length (from UniProt Q5TCY1)	1.47
CHEK2, construct: Full length (from UniProt O96017)	1.19
MAP4K3, construct: aa1-380 (from UniProt Q8IVH8)	1.01
CAMK1, construct: Full length (from UniProt Q14012)	0.946
MAP3K10, construct: aa1-449 (from UniProt Q02779)	0.884
EIF2AK1, construct: Full length (from UniProt Q9BQI3)	1.27
PKN3, construct: Full length (from UniProt Q6P5Z2)	0.833

Same assay, conditions: pThr fixed; at +1

Substance	relative phosphorylation
MOK, construct: aa1-343 (from UniProt Q9UQ07)	0.333
TTBK1, construct: Full length (from UniProt Q5TCY1)	0.403
CHEK2, construct: Full length (from UniProt O96017)	0.96
MAP4K3, construct: aa1-380 (from UniProt Q8IVH8)	0.928
CAMK1, construct: Full length (from UniProt Q14012)	0.649
MAP3K10, construct: aa1-449 (from UniProt Q02779)	0.578
EIF2AK1, construct: Full length (from UniProt Q9BQI3)	0.374
PKN3, construct: Full length (from UniProt Q6P5Z2)	0.747

Same assay, conditions: pThr fixed; at +2

Substance	relative phosphorylation
MOK, construct: aa1-343 (from UniProt Q9UQ07)	0.394
TTBK1, construct: Full length (from UniProt Q5TCY1)	0.521
CHEK2, construct: Full length (from UniProt O96017)	1.06
MAP4K3, construct: aa1-380 (from UniProt Q8IVH8)	0.749
CAMK1, construct: Full length (from UniProt Q14012)	0.596
MAP3K10, construct: aa1-449 (from UniProt Q02779)	0.503
EIF2AK1, construct: Full length (from UniProt Q9BQI3)	0.484
PKN3, construct: Full length (from UniProt Q6P5Z2)	0.671

Same assay, conditions: pThr fixed; at +3

Substance	relative phosphorylation
MOK, construct: aa1-343 (from UniProt Q9UQ07)	0.486
TTBK1, construct: Full length (from UniProt Q5TCY1)	0.836
CHEK2, construct: Full length (from UniProt O96017)	0.653
MAP4K3, construct: aa1-380 (from UniProt Q8IVH8)	0.717
CAMK1, construct: Full length (from UniProt Q14012)	0.601
MAP3K10, construct: aa1-449 (from UniProt Q02779)	0.623
EIF2AK1, construct: Full length (from UniProt Q9BQI3)	0.489
PKN3, construct: Full length (from UniProt Q6P5Z2)	0.69

Same assay, conditions: pThr fixed; at +4

Substance	relative phosphorylation
MOK, construct: aa1-343 (from UniProt Q9UQ07)	0.512
TTBK1, construct: Full length (from UniProt Q5TCY1)	1.01
CHEK2, construct: Full length (from UniProt O96017)	0.586
MAP4K3, construct: aa1-380 (from UniProt Q8IVH8)	0.614
CAMK1, construct: Full length (from UniProt Q14012)	0.682
MAP3K10, construct: aa1-449 (from UniProt Q02779)	0.634
EIF2AK1, construct: Full length (from UniProt Q9BQI3)	0.601
PKN3, construct: Full length (from UniProt Q6P5Z2)	0.944

Same assay, conditions: pThr fixed; at -1

Substance	relative phosphorylation
MOK, construct: aa1-343 (from UniProt Q9UQ07)	0.236
TTBK1, construct: Full length (from UniProt Q5TCY1)	0.51
CHEK2, construct: Full length (from UniProt O96017)	0.354
MAP4K3, construct: aa1-380 (from UniProt Q8IVH8)	0.437
CAMK1, construct: Full length (from UniProt Q14012)	0.288
MAP3K10, construct: aa1-449 (from UniProt Q02779)	0.63
EIF2AK1, construct: Full length (from UniProt Q9BQI3)	0.504
PKN3, construct: Full length (from UniProt Q6P5Z2)	0.866

Same assay, conditions: pThr fixed; at -2

Substance	relative phosphorylation
MOK, construct: aa1-343 (from UniProt Q9UQ07)	0.431
TTBK1, construct: Full length (from UniProt Q5TCY1)	2.02
CHEK2, construct: Full length (from UniProt O96017)	0.477
MAP4K3, construct: aa1-380 (from UniProt Q8IVH8)	0.985
CAMK1, construct: Full length (from UniProt Q14012)	0.264
MAP3K10, construct: aa1-449 (from UniProt Q02779)	0.706
EIF2AK1, construct: Full length (from UniProt Q9BQI3)	0.816
PKN3, construct: Full length (from UniProt Q6P5Z2)	0.755

Same assay, conditions: pThr fixed; at -3

Substance	relative phosphorylation
MOK, construct: aa1-343 (from UniProt Q9UQ07)	0.358
TTBK1, construct: Full length (from UniProt Q5TCY1)	1.57
CHEK2, construct: Full length (from UniProt O96017)	0.214
MAP4K3, construct: aa1-380 (from UniProt Q8IVH8)	1.11
CAMK1, construct: Full length (from UniProt Q14012)	0.201
MAP3K10, construct: aa1-449 (from UniProt Q02779)	0.849
EIF2AK1, construct: Full length (from UniProt Q9BQI3)	0.761
PKN3, construct: Full length (from UniProt Q6P5Z2)	0.532

Same assay, conditions: pThr fixed; at -4

Substance	relative phosphorylation
MOK, construct: aa1-343 (from UniProt Q9UQ07)	0.532
TTBK1, construct: Full length (from UniProt Q5TCY1)	1.28
